According to the nanobody polyreactivity screen of Harvey et al. (2022):

Assay: yeast display, Sf9 membrane polyspecificity reagent, FACS + sequencing; frameworks hold sequencing errors
Procedure, shortened: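 Polyreactivity labels are assigned by the sorting gate from which each nanobody was recovered. The gates were low and high (top ~1%), set on anti-HA fluorescence for expression and streptavidin fluorescence for reagent binding. Before sorting, galactose-induced (36–48 hours) yeast display cells were stained for 1 hour at 4 °C with 10% biotinylated, detergent-solubilized Sf9 membrane reagent.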

Sequence	polyreactivity (PSR sort gate)
QDQLVESGGGLVQAGGSLRLSCAASGLIFYGYVMGWYRQAPGKERELVAGISRNSGSTYYADSVKGRFTISRDNAKNTVYLQMNSLKPEDTAVYYCAALKFEAWAGEDYWGQGTQVTVSS	low polyreactivity
QVQLVESGGVLVQAGGSLRLSCAASGRTFPTYAMGCSRPAPGKERELVAAITSGGSTYYADTVKGRFTISRDKAKNTVYLQMTSLKPEDTAVYYCAAISTWGTKYDYWGQGTQVTVSS	high polyreactivity
QVQLVESGGGLVQAGGSLRLSCAASGRTFFGYAMGWYRQAPGKERELVAAINWGGASTYYADSVKGRFTISRDNAKNTVYLQMNSLKPEDTAVYYCAADSVPSRPTYGRYDYWGQGTQVTVSS	low polyreactivity
QVQHVESGGGLVQAGGSLRLSCAASGFIFVRNTMGWYRQAPGKERELVATITRRGGSTSYADSVKGRFTISRDNAKNTVYLQMNSLKPEDTAVYFCNARSVYGSKQEEYWGQGTQVTVSS	high polyreactivity
QVQLVESGGGLVQAGGRLRLSCAASGITYEPYAMGWYRQAPGKERELVAAISRSGGSTYYADSVKGRFTISRDNAKNTVYLQMNSLKPVDTAVYYCNALRGTASRRGYYWGQGTQVTVSS	high polyreactivity
QVQLVESGGGLVQAGGSLRLSCAASGRTFKYNAMAWYRQAPGTERELVADISYSGDSTYYADSVKGRFTISRDNAKNTVYLQMNSLKPEDTAVYYCNAVLTHGRLWRAHGYWGQGTQVTVSS	high polyreactivity
QVQLVESGGGLVQAGGSLRLSCAASGRTIPSNAMGWYRQAPGKERELVAAITRSGGSTKYADSVKGRFTISRDNAKNTVYLQMNSLKPEDTAVYYCAGRYHSGSQVWYNYWGQGSQVTVSS	high polyreactivity
QVQLVESGGGLVQAGGSLRLSCAASGRIFYYYAMGWYRQAPGKEREFVADISARGGSTYYADSVKGRFTISRDNAKKTVYLEMNSLKPEDTAVYYCAATTGLYTRYGYWGQGTQVTVSS	high polyreactivity
QVQLVESGGGLGQAGGSLRLICAASGFIFRYNAMGWYRQAPGKERELVAGISRSGGRTYYADSVKGRFTISRDNAKNTVYLQMNSLKPEDTAVYYCNAEWVGGAGGYYYWGQGTQVTVSS	low polyreactivity
QVQLVESGGGLVQAGGSLRLSCAASGFIFRRYAMGWYRQAPGKERELVAAISRGGGSTYYADSVKGRFTISRDNAKNTVYFQMNSLKPEDTAVYYCAARFVPYDAPLNERDYWGQGTQVTVSS	high polyreactivity
QVQLVESGGGLVQAGGSLRLSCAASGFTLRKYSMGWYRQAPGKEREFVATISSRAASTYYADSVKGRFTISRDNAKNTVYLQMISLKPEDTAVYYCNKVSPYRGYYWGQGTQVTVSS	high polyreactivity
QVQLVESGGGLVQAGGSLRLSCDASGSTIYPYAMGWYRQAPGKERELVAAISSGGRTYYADSVKGRFTISRDNAKTTVYLQMNSLKPEDTAGYYCATYYYGWYTIDFYYWGQGTQVTVSS	high polyreactivity
QVQLVESGGGLVQAGGSLRLSCAASGRTFYGYAMAWYRQAPGKERELVAAISVSGGSPYYADSVKGRFTISRDNAKNTVYLQMNSQKPEDTAVYYCIAKYSYRRWYDFDYWGQGTQVTVSS	low polyreactivity
QVQLVESGGGLVQAGGSLRLSCAASGSTFLYVMGWYRQAPGKERELVAAISESGGSTYYADSVKGRFTISRDNAKNTVYLQMNSLKPEDTAVYYCAADLQTGLQYRYYRVDYWGQGTQVTVSS	low polyreactivity
QVQLEESGGGLVQAGGSLRLSCAASGSILFFNAKGWYRQAPGKERELVADISTGGSTYYADSVKGRFTISRDNAKNTVYLQMNSLKPEDTAVYYCNADYYYFFYTLDYWGQGTQVTVSS	high polyreactivity
QVQLVESGGGLVQAGGSLRLSCAASGLIFYRYAMGRYRQAPRKERELVAAISSSGGSTYYADSVKGRFTISRDNAKNTVYLQMNSLKPEDTAVYYCSARPSTHGYKYGYWGQGTQVTVSS	high polyreactivity
QVQLVESGGGLVQAGGSLRLSCAASGITFGYYAMGWYRQAPGKERELVAAINWSGGSTYYADSVKGRFTISRDNAKNTVYLQMNSLKPEDTAVYYCNARPFNRYYREYDYWGQGTQVTVSS	high polyreactivity
QVQLVESGGGLVQAGGSLRLSCAASGIIFKYYAMGWYRPAPGKERELVAAITASGGRTYYADSVKGRFTISRDNAKNTVYLQMNSLKPEDTAVYYCAADSRSAYDYWGQGTQVTVSS	high polyreactivity
QVQLVESGGGLVQAGGSLRLSSAASGSTLVYYDRGWYRQAPGKERELVATITGTDSTYYADSVKGRFTISRDNAKNTVYLQMNSLKPVDTADCAADRAASRPVYDYWGQGTQVTVSS	low polyreactivity
QVQLVESGGGLVQAGGSLRLSCAASVSIFIYYAMGWYRQAQGKERELVAAISYSDGDTYYADSVKGRFTISRDNAKNTVYLQMNSLKPEDTAVYYCAAEVPQYYDVGWEDYCGQGTQVTVSS	high polyreactivity
QVQLVESGGGLVQAGGSLRLSCAASGGTLQGNAMGWYRQAPGKERELVAAISSRGGRTYYADSVKGRFTISRDNAKNTVYLQMNSLKPEDTAVYYCAAVQNGDSTLLRTKGGYWGQGTQVTVSS	high polyreactivity
QVQLVESGGGLVQAGGSLRLSCAASGITFFWNAMGWYRTAPGKERELVAAISSGAGTTYADSVKGRFTISRDNAKNTVYLQMNSLKPEDTAVYYCAARRYRYAYGPYNYWGQGTQVTVSS	low polyreactivity

Sequence	polyreactivity (PSR sort gate)
QVQLVESGGGLVQAGGSLRLSCPASGFTFYVNAMGWSRQAPGKERELVAGITTSDGSTYYADSVKGRFTISRDNAKNNVYLQMNSLKPEDTAVYYCAAAITWYQLYQRSGGDYWGQGTQVTVSS	low polyreactivity
QVQLVESGGGLVQAGGSLRLSCAASGSIFYGNTMGWYRQAPGKERELVAAISSGGSTKYADSVKGRFTISRDNAKNTVYLQMNSLKPEDTAVYYCAKVAPRSSSSQEYYYWGQGTQVTVSS	low polyreactivity
QVQLVESGGGLVQAGGSLRLSCAASGITFRRYAMGWYRQAPGKERELVAAITSSGGSTYYADSVKGRFSISRDNAKNTVYLQMNSLKPEDTAVYYCAARAYRVNWSSWYRSGYDYWGQGTQVTVSS	high polyreactivity
QVQLVESGGGLVQAGGSLRLSCAASGRIFGLNAMGWYRQAPGKEREFVAAIRWRGGSTYYADSVKGRFTISRDNAKNTVYLQMNSLKPEDTAVYYCAADRNLGVSRYGYWGQGTQVTVSS	high polyreactivity
QDQLVESGGGLVQEGGSLRLSCAAYGTIFQIYAMGWYIQAPGKERELVAAINSGGISKYADSVKGRFTISRDNAKNSVYLQMNSLTPADTAVYYCAASVDTGRYSVYYHGYTYDYWGQGTQVTVSS	low polyreactivity
QVQLVESGGGLVQAGGSLRLSCAASGRTFVYNAMGWYRQAPGKERELVAAISQSGGSTYYADSVKGRFTISRDTAKNSVYLQMNSLKPEVTAVYDCAARYTTGSYVRYNFWGQGTQVTVSS	high polyreactivity
QVQLVESGGGLVQAGGSLRLSCAASGLIFYYNAMGWYRQAPGKERELVAAISTGGSTNYADSVKGRFTISRDNAKNTVYLQMNSLKPEDTAVYYCAAGTRNPYGYKMYYWGQGTQVTVSS	high polyreactivity
QVQLVESGGGLVQAGGSLRLSCAASGITFVFYAMGWYRQAPGKERELVATISYRGTSTYYADSVKGRFTISRDNAKNTVYLQMNSLKPEDTAVYYCAADTYIYYKTGYGYWGQGTQVTVSS	low polyreactivity
QVQLVESGGGLVQSGGSLRLSCAASGRIIIRYAMGWYIQEPGKERELVAAISKNGGTTYYADSVKGRFTISRDNAKYTVYLQMNSLKPVDTAVYYGAKRLVSRGRTYAYPEYDYWGQGTQVTVSS	high polyreactivity
QVQLVESGGGLVQAGGSLRLSCAASGSIFSSYAMGWYRQAPGKERELVAAISQSGGDTYYADSVKGRFTISRDNAKNTVYLQMNSLKPEDTAVYYCAASVWYYPMDYWGKGTQVTVSS	low polyreactivity
QVQLVESGGGLVQAGGSLRLSCAASGRIFGRNAMGWYRQAPGKERELVAAISSGGGRTYYADSVKGRFTISRDNAKNTVYLQMNSLKPEDTSVYYCAAEDWYEYDYWGQGTQVTVSS	high polyreactivity
QVQLQESGGGLVHAGGSLRLSCAASGTISFINMMGWYRQAAGRERELVASINFGANTNYADSVKGRFTISRDNAKNTVYLQMNSLKPEDTAVYYCAVYDFDAYTLYYWGQGTLVTVSS	high polyreactivity
QVQLVESGGGLVQAGGSLRLSCAASGSTFRINAMGWYRQAPGKERELVADINSGGNTTYADSVKGRFTISRDNAKNTVYFQMNSLKPEDTAVYYCAAAPVFDLWVFLLDYGYDYWGQGTQVTVSS	low polyreactivity
QVQLGESGGGLVQAGGSHRLICAATASTLGGYAMGWYRQAPGTERELVAAITRSGGSTYYADSVKGRFTISRDNAKNTVYLQMNSLKPEDTSVNYCGADRYSYFNIGYDYWGQGTQVTVSS	low polyreactivity
QVELVESGGGLVQAGGSLRLSCAGSGIIFPYYVMGWYRQAPGKARELVAAINSGGRTYYADSVKGRFTISRDNAKNSVYLQMNSLNREDTAVYYCAATQSTNRMDHWGQGTQVTVSS	low polyreactivity
QVQLVESGGRLVQAGGSIRLICAASGFTFIGYAMGWYRQAPGKERELVADITYSGSSTYYADSVKGRFTISRDNAKNTVYLQMNSLKPEDTAVYYCAAEAYYYCFDVDYWGQGTLVTVSS	low polyreactivity
QVQLVESGGGLVQAGGSLRLSCAASGIIFDRNTMGWYRQAPGKEREYVAAISRNGGSTSYADSVKGRFTISRDNAKNTVYLQMNSLKPEDTAVYDCAADVETFWGWRYEYWGQGTQVTVSS	low polyreactivity
QVQLVESGGGLVQAGGSLRLSCAASGNAMGWYRQAPGKERDLVAAITRRGGSTYYADSVKGRFTISRDNAKNTVYLQMNSLKPEDTAVYYCAADNPSYNLWYGYWGQGTQVTVSS	low polyreactivity
QVQLGESGGGLVQAGGSLRLSCAASGRIFRTNAMGWYRQAPGKERELVAAITFSGGGTYYADSVKGRFTISRDNAKNTVYLQMNSLKPEDTAVYYCATDWYYEYYDWGQGTQVTVSS	low polyreactivity
QVQLVESGGGLVQAGGSLRLSCAASGFTFARYSMGWYRQAPGKERELVAAISRGGDSTYYADSVKGRFTISRDNAKNTVYLQMNSLKPEDSAVYYCAADISHRGYREYYSWGQGTQVTVSS	high polyreactivity
QVQLVESGGGLVQAGGSLRLSCAASGFTFYPYALGRYRQAPRKEREFVAAISNGDSTHYADSVKGRFTISRDNAKNTVYLQMNSLKPEDTAVYYCNAYTRYPFYFVTSKYDYWGQGTQVTVSS	low polyreactivity
